Molecular target: T1, mannose receptor on mouse J774E macrophage cells (mouse) (UniProt Q61830)
T1 sequence (looked up): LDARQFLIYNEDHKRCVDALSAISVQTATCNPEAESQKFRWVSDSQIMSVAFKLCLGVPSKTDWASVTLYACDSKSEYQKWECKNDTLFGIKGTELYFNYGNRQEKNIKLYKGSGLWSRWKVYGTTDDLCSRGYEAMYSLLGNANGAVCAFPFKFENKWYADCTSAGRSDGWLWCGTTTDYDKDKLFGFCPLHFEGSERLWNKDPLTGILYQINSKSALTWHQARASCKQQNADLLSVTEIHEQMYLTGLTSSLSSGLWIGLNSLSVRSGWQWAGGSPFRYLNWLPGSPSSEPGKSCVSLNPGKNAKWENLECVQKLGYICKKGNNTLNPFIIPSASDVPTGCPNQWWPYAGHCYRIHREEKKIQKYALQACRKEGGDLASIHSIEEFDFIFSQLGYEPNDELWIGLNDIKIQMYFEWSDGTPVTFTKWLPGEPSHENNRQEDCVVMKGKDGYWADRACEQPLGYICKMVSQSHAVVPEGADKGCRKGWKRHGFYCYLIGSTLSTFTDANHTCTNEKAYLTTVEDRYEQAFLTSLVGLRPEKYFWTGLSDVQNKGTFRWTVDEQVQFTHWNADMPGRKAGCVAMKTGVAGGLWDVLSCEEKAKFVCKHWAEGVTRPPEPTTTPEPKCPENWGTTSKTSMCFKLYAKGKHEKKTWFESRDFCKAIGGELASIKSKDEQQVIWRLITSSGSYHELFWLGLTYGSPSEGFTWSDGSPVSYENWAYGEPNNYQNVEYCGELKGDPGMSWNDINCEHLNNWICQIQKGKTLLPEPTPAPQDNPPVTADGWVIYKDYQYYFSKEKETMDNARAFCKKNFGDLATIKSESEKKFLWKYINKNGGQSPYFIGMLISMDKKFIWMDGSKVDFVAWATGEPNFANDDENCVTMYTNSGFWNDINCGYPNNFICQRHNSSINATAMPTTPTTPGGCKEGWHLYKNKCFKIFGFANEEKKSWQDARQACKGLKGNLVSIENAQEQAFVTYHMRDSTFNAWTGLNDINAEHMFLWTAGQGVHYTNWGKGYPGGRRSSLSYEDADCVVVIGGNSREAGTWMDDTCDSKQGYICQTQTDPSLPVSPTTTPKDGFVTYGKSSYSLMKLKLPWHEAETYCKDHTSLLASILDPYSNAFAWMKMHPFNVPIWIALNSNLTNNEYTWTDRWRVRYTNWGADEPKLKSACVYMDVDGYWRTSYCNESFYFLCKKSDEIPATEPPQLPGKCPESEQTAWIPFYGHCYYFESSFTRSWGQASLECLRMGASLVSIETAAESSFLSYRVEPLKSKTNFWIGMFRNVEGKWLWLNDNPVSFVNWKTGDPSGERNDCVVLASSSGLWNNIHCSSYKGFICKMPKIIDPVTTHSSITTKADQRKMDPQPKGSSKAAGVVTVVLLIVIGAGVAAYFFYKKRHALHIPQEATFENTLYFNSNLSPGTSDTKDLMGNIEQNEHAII
Assay: cell-based or functional assay

Binder | Inhibition (%) of uptake into J774E cells by mannan | Internalization into J774E cells in the presence of 2 µg/mL mannan: glucocerebrosidase activity (Units/mg cell lysate), absolute (Units/mg cell lysate) | Internalization into J774E cells in the presence of 2 µg/mL mannan: glucocerebrosidase activity (Units/mg cell lysate), background corrected (Units/mg cell lysate) | Internalization into J774E cells: glucocerebrosidase activity (Units/mg cell lysate), absolute (Units/mg cell lysate) | Internalization into J774E cells: glucocerebrosidase activity (Units/mg cell lysate), background corrected (Units/mg cell lysate) | Uptake into J774E cells, fold over background | Uptake into J774E cells relative to GA-GCB from swainsonine treated cells
Gene-Activated GCB (GA-GCB) from untreated HT-1080 cells (enzyme, N-linked glycans as processed by untreated HT-1080 cells (no mannosidase inhibitor)) ARPCIPKSFGYSSVVCVCNATYCDSFDPPTFPALGTFSRYESTRSGRRMELSMGPIQANHTGTGLLLTLQPEQKFQKVKGFGGAMTDAAALNILALSPPAQNLLLKSYFSEEGIGYNIIRVPMASCDFSIRTYTYADTPDDFQLHNFSLPEEDTKLKIPLIHRALQLAQRPVSLLASPWTSPTWLKTNGAVNGKGSLKGQPGDIYHQTWARYFVKFLDAYAEHKLQFWAVTAENEPSAGLLSGYPFQCLGFTPEHQRDFIARDLGPTLANSTHHNVRLLMLDDQRLLLPHWAKVVLTDPEAAKYVHGIAVHWYLDFLAPAKATLGETHRLFPNTMLFASEACVGSKFWEQSVRLGSWDRGMQYSHSIITNLLYHVVGWTDWNLALNPEGGPNWVRNFVDSPIIVDITKDTFYKQPMFYHLGHFSKFIPEGSQRVGLVASQKNDLDAVALMHPDGSAVVVVLNRSSKDVPLTIKDPAVGFLETISPGYSIHTYLWRRQ | 53% | 1680 | 1020 | 2820 | 2160 | 3 fold | 
Gene-Activated GCB (GA-GCB) from HT-1080 cells treated with kifunensine (1 µg/mL) (enzyme, N-linked high mannose glycans (cells treated with the class 1 mannosidase inhibitor kifunensine, 1 µg/mL)) ARPCIPKSFGYSSVVCVCNATYCDSFDPPTFPALGTFSRYESTRSGRRMELSMGPIQANHTGTGLLLTLQPEQKFQKVKGFGGAMTDAAALNILALSPPAQNLLLKSYFSEEGIGYNIIRVPMASCDFSIRTYTYADTPDDFQLHNFSLPEEDTKLKIPLIHRALQLAQRPVSLLASPWTSPTWLKTNGAVNGKGSLKGQPGDIYHQTWARYFVKFLDAYAEHKLQFWAVTAENEPSAGLLSGYPFQCLGFTPEHQRDFIARDLGPTLANSTHHNVRLLMLDDQRLLLPHWAKVVLTDPEAAKYVHGIAVHWYLDFLAPAKATLGETHRLFPNTMLFASEACVGSKFWEQSVRLGSWDRGMQYSHSIITNLLYHVVGWTDWNLALNPEGGPNWVRNFVDSPIIVDITKDTFYKQPMFYHLGHFSKFIPEGSQRVGLVASQKNDLDAVALMHPDGSAVVVVLNRSSKDVPLTIKDPAVGFLETISPGYSIHTYLWRRQ | 73% | 2980 | 2320 | 9180 | 8530 | 14 fold | 2 fold
Gene-Activated GCB (GA-GCB) from HT-1080 cells treated with swainsonine (1 µg/mL) (enzyme, N-linked glycans not trimmed by Golgi mannosidase II (cells treated with the class 2 mannosidase inhibitor swainsonine, 1 µg/mL)) ARPCIPKSFGYSSVVCVCNATYCDSFDPPTFPALGTFSRYESTRSGRRMELSMGPIQANHTGTGLLLTLQPEQKFQKVKGFGGAMTDAAALNILALSPPAQNLLLKSYFSEEGIGYNIIRVPMASCDFSIRTYTYADTPDDFQLHNFSLPEEDTKLKIPLIHRALQLAQRPVSLLASPWTSPTWLKTNGAVNGKGSLKGQPGDIYHQTWARYFVKFLDAYAEHKLQFWAVTAENEPSAGLLSGYPFQCLGFTPEHQRDFIARDLGPTLANSTHHNVRLLMLDDQRLLLPHWAKVVLTDPEAAKYVHGIAVHWYLDFLAPAKATLGETHRLFPNTMLFASEACVGSKFWEQSVRLGSWDRGMQYSHSIITNLLYHVVGWTDWNLALNPEGGPNWVRNFVDSPIIVDITKDTFYKQPMFYHLGHFSKFIPEGSQRVGLVASQKNDLDAVALMHPDGSAVVVVLNRSSKDVPLTIKDPAVGFLETISPGYSIHTYLWRRQ | 67% | 2040 | 1380 | 4790 | 4130 | 7 fold | 
